Source: patent US20240269235A1 (Gilead, published 2024)

B1: Fc-IL-2v heterodimer 96.46 (hIL-2v_Δ1-5_Y45G_E61A_C125S) (Fc fusion)
chain 1: ESKYGPPCPPCPAPEAAGGPSVFLFPPKPKDTLMISRTPEVTCVVVDVSQEDPEVQFNWYVDGVEVHNAKTKPREEQFNSTYRVVSVLTVLHQDWLNGKEYKCKVSNKGLPSSIEKTISKAKGQPREPQVYTLPPSQEEMTKNQVSLWCLVKGFYPSDIAVEWESNGQPENNYKTTPPVLDSDGSFFLYSRLTVDKSRWQEGNVFSCSVMHEALHNHYTQKSLSLSLGGGGGSGGGGSGGGGSGGGGSSTKKTQLQLEHLLLDLQMILNGINNYKNPKLTRMLTFKFGMPKKATELKHLQCLEAELKPLEEVLNLAQSKNFHLRPRDLISNINVIVLELKGSETTFMCEYADETATIVEFLNRWITFSQSIISTLT
chain 2: ESKYGPPCPPCPAPEAAGGPSVFLFPPKPKDTLMISRTPEVTCVVVDVSQEDPEVQFNWYVDGVEVHNAKTKPREEQFNSTYRVVSVLTVLHQDWLNGKEYKCKVSNKGLPSSIEKTISKAKGQPREPQVYTLPPSQEEMTKNQVSLSCAVKGFYPSDIAVEWESNGQPENNYKTTPPVLDSDGSFFLVSRLTVDKSRWQEGNVFSCSVMHEALHNRFTQKSLSLSLGK
notes: hIgG4 knob-in-hole Fc heterodimer, one IL-2v on the knob chain
B2: Fc-IL-2v heterodimer 98.46 (hIL-2v_Δ1-5_R38G_Y45G_C125S) (Fc fusion)
chain 1: ESKYGPPCPPCPAPEAAGGPSVFLFPPKPKDTLMISRTPEVTCVVVDVSQEDPEVQFNWYVDGVEVHNAKTKPREEQFNSTYRVVSVLTVLHQDWLNGKEYKCKVSNKGLPSSIEKTISKAKGQPREPQVYTLPPSQEEMTKNQVSLWCLVKGFYPSDIAVEWESNGQPENNYKTTPPVLDSDGSFFLYSRLTVDKSRWQEGNVFSCSVMHEALHNHYTQKSLSLSLGGGGGSGGGGSGGGGSGGGGSSTKKTQLQLEHLLLDLQMILNGINNYKNPKLTGMLTFKFGMPKKATELKHLQCLEEELKPLEEVLNLAQSKNFHLRPRDLISNINVIVLELKGSETTFMCEYADETATIVEFLNRWITFSQSIISTLT
chain 2: ESKYGPPCPPCPAPEAAGGPSVFLFPPKPKDTLMISRTPEVTCVVVDVSQEDPEVQFNWYVDGVEVHNAKTKPREEQFNSTYRVVSVLTVLHQDWLNGKEYKCKVSNKGLPSSIEKTISKAKGQPREPQVYTLPPSQEEMTKNQVSLSCAVKGFYPSDIAVEWESNGQPENNYKTTPPVLDSDGSFFLVSRLTVDKSRWQEGNVFSCSVMHEALHNRFTQKSLSLSLGK
notes: as for B1
B3: Fc-IL-2v heterodimer 99.46 (hIL-2v_Δ1-5_R38G_E61A_C125S) (Fc fusion)
chain 1: ESKYGPPCPPCPAPEAAGGPSVFLFPPKPKDTLMISRTPEVTCVVVDVSQEDPEVQFNWYVDGVEVHNAKTKPREEQFNSTYRVVSVLTVLHQDWLNGKEYKCKVSNKGLPSSIEKTISKAKGQPREPQVYTLPPSQEEMTKNQVSLWCLVKGFYPSDIAVEWESNGQPENNYKTTPPVLDSDGSFFLYSRLTVDKSRWQEGNVFSCSVMHEALHNHYTQKSLSLSLGGGGGSGGGGSGGGGSGGGGSSTKKTQLQLEHLLLDLQMILNGINNYKNPKLTGMLTFKFYMPKKATELKHLQCLEAELKPLEEVLNLAQSKNFHLRPRDLISNINVIVLELKGSETTFMCEYADETATIVEFLNRWITFSQSIISTLT
chain 2: ESKYGPPCPPCPAPEAAGGPSVFLFPPKPKDTLMISRTPEVTCVVVDVSQEDPEVQFNWYVDGVEVHNAKTKPREEQFNSTYRVVSVLTVLHQDWLNGKEYKCKVSNKGLPSSIEKTISKAKGQPREPQVYTLPPSQEEMTKNQVSLSCAVKGFYPSDIAVEWESNGQPENNYKTTPPVLDSDGSFFLVSRLTVDKSRWQEGNVFSCSVMHEALHNRFTQKSLSLSLGK
notes: as for B1
B4: Fc-IL-2v heterodimer 105.46 (hIL-2v_Δ1-5_F42A_Y45A_L72G_C125S) (Fc fusion)
chain 1: ESKYGPPCPPCPAPEAAGGPSVFLFPPKPKDTLMISRTPEVTCVVVDVSQEDPEVQFNWYVDGVEVHNAKTKPREEQFNSTYRVVSVLTVLHQDWLNGKEYKCKVSNKGLPSSIEKTISKAKGQPREPQVYTLPPSQEEMTKNQVSLWCLVKGFYPSDIAVEWESNGQPENNYKTTPPVLDSDGSFFLYSRLTVDKSRWQEGNVFSCSVMHEALHNHYTQKSLSLSLGGGGGSGGGGSGGGGSGGGGSSTKKTQLQLEHLLLDLQMILNGINNYKNPKLTRMLTAKFAMPKKATELKHLQCLEEELKPLEEVLNGAQSKNFHLRPRDLISNINVIVLELKGSETTFMCEYADETATIVEFLNRWITFSQSIISTLT
chain 2: ESKYGPPCPPCPAPEAAGGPSVFLFPPKPKDTLMISRTPEVTCVVVDVSQEDPEVQFNWYVDGVEVHNAKTKPREEQFNSTYRVVSVLTVLHQDWLNGKEYKCKVSNKGLPSSIEKTISKAKGQPREPQVYTLPPSQEEMTKNQVSLSCAVKGFYPSDIAVEWESNGQPENNYKTTPPVLDSDGSFFLVSRLTVDKSRWQEGNVFSCSVMHEALHNRFTQKSLSLSLGK
notes: as for B1
B5: Fc-IL-2v heterodimer 108.46 (hIL-2v_Δ1-5_F42A_Y45G_E62A_C125S) (Fc fusion)
chain 1: ESKYGPPCPPCPAPEAAGGPSVFLFPPKPKDTLMISRTPEVTCVVVDVSQEDPEVQFNWYVDGVEVHNAKTKPREEQFNSTYRVVSVLTVLHQDWLNGKEYKCKVSNKGLPSSIEKTISKAKGQPREPQVYTLPPSQEEMTKNQVSLWCLVKGFYPSDIAVEWESNGQPENNYKTTPPVLDSDGSFFLYSRLTVDKSRWQEGNVFSCSVMHEALHNHYTQKSLSLSLGGGGGSGGGGSGGGGSGGGGSSTKKTQLQLEHLLLDLQMILNGINNYKNPKLTRMLTAKFGMPKKATELKHLQCLEEALKPLEEVLNLAQSKNFHLRPRDLISNINVIVLELKGSETTFMCEYADETATIVEFLNRWITFSQSIISTLT
chain 2: ESKYGPPCPPCPAPEAAGGPSVFLFPPKPKDTLMISRTPEVTCVVVDVSQEDPEVQFNWYVDGVEVHNAKTKPREEQFNSTYRVVSVLTVLHQDWLNGKEYKCKVSNKGLPSSIEKTISKAKGQPREPQVYTLPPSQEEMTKNQVSLSCAVKGFYPSDIAVEWESNGQPENNYKTTPPVLDSDGSFFLVSRLTVDKSRWQEGNVFSCSVMHEALHNRFTQKSLSLSLGK
notes: as for B1

How the values were obtained:
[1] = biological target: T1, IL-2Rα (recombinant IL-2 receptor α, R&D Systems Cat #: 223-2A/CF), biotinylated (human, UniProt P01589 22-213, limits assumed, biotinylated using sulfo-NHS-LC-LC-Biotin); assay: SPR (Biacore), CM4 chip, biotinylated receptor on neutravidin
T1 construct: Bought reagent; also used here as the IL-2Rα partner of the in-silico analysis of PDB 2B5I (another construct); also called IL-2RA; CD25
T1 sequence (looked up): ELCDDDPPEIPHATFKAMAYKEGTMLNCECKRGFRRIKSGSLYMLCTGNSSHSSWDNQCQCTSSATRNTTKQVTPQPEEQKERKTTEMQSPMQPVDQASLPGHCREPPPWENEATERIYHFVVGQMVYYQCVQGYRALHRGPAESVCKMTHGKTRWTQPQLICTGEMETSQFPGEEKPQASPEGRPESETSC
Experimental: (§1) Fc-IL-2 variant binding data was collected on a Biacore platform using a CM4 chip. Neutravidin was immobilized using standard amine coupling methods and used to capture biotinylated receptors. The source, preparation and immobilization of biotinylated IL-2Rα and IL-2Rβγ heterodimer was as described in Example 4. Proleukin was used as a comparator. Fc-IL-2 variants and Proleukin were injected at various concentrations over these surfaces. Kinetic data obtained from these injections was used to extract kₒₙ and koff to calculate KD (KD=Koff/kₒₙ).

[2] = biological target: T2, IL-2Rβγ heterodimer, custom biotinylated Fc fusion protein (human IL-2Rβ 27-240-Fc-FLAG / human IL-2Rγ … (human, site-specific biotinylation at the AviTag)); assay: as above
T2 construct: Extracellular regions fused to IgG1 knob-in-hole Fc subunits with tags; also called IL-2 receptor βγ heterodimer; Fc-IL-2Rβγ
Experimental: as §1

[3] = biological target: T3, trimeric murine IL-2 receptor (IL-2Rα, IL-2Rβ, and IL-2Rγ) on CTLL-2 cells (murine, UniProt P01590 22-268; P16297 27-539; P34902 23-369); assay: cell-based or functional assay
T3 sequence (looked up) 1: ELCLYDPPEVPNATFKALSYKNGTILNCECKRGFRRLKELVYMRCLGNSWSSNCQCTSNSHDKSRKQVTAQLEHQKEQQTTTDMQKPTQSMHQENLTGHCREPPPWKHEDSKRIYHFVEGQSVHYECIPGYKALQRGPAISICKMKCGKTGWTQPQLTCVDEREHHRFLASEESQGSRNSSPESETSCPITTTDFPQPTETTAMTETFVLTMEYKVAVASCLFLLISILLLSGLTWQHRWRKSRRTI
T3 sequence (looked up) 2: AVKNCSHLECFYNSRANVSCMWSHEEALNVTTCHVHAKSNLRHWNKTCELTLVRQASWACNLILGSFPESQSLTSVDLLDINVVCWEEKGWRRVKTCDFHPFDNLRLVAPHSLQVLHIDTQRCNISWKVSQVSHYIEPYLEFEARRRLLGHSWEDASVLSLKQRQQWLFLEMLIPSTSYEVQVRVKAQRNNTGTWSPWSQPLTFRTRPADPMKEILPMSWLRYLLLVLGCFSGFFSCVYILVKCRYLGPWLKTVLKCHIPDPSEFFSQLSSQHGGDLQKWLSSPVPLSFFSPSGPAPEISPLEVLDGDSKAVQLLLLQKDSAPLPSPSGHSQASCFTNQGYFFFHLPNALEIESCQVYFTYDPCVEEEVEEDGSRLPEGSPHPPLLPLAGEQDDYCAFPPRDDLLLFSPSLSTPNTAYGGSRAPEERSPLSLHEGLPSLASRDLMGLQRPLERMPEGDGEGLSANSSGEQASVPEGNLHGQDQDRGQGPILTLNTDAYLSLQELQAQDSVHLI
T3 sequence (looked up) 3: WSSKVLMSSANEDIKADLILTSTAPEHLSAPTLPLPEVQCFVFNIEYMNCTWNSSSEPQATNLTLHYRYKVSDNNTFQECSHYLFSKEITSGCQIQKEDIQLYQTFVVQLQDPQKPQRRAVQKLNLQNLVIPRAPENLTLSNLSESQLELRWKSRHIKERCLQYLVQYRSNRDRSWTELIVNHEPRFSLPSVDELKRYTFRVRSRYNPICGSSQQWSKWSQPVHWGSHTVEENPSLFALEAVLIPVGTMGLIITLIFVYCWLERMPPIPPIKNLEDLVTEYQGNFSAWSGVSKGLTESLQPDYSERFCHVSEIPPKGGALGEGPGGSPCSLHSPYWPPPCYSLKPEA

[4] = biological target: T4, IL-2Rαβγ on KHYG-1 cells (human NK leukemia cell line that expresses IL-2Rα, β, and γ) (human, UniProt P01589 22-272; P14784 27-551; P31785 23-369); assay: cell-based or functional assay
T4 sequence (looked up) 1: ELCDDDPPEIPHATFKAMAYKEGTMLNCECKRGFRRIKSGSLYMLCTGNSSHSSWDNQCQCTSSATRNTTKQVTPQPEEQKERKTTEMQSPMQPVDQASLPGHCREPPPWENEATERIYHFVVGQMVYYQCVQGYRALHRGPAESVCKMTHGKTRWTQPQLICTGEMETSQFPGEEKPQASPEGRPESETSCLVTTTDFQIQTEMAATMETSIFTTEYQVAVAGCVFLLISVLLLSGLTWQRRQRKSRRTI
T4 sequence (looked up) 2: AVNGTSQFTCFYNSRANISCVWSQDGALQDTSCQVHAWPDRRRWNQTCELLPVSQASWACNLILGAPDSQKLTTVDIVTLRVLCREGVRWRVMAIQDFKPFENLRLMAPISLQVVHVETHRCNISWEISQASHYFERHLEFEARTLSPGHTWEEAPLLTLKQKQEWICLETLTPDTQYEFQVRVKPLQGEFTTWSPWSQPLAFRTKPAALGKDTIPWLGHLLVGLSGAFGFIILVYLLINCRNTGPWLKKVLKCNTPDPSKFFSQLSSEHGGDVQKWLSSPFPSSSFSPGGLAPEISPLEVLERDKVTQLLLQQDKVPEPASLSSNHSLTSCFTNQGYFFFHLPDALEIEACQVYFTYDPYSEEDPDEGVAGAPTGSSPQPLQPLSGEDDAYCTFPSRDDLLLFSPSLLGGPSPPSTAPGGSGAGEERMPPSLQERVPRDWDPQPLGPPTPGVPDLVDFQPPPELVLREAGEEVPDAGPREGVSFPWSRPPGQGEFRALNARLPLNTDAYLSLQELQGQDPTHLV
T4 sequence (looked up) 3: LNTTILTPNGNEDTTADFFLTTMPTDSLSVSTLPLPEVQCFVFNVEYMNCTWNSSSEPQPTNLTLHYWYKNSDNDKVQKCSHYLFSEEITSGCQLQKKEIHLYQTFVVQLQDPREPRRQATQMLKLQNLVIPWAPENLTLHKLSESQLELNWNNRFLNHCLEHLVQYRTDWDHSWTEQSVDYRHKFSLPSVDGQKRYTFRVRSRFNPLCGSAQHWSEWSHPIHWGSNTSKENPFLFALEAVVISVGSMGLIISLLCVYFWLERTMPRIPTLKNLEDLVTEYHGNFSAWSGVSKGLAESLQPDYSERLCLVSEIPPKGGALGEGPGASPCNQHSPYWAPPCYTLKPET

Binder | Kd [1] [µM] | Kd [2] [nM] | STAT5 activation of CTLL-2 cells, EC50 [3] [nM] | Proliferation of KHYG-1 NK cells, EC50 [4] [nM]
B1 | 56 | 0.064 | 0.4 | –
B2 | 59 | 0.056 | 0.2 | –
B3 | 39 | 0.065 | 0.03 | –
B4 | > 60 | 0.063 | 7.7 | –
B5 | – | 0.062 | 41.4 | 0.191
